Experimental data reported in PMC4839733.

Target: SP-VSVG-hGLP-1RΔN23-GFP V36A (human) (UniProt P43220)
UniProt P43220, sequence (P43220 24-463 V36A): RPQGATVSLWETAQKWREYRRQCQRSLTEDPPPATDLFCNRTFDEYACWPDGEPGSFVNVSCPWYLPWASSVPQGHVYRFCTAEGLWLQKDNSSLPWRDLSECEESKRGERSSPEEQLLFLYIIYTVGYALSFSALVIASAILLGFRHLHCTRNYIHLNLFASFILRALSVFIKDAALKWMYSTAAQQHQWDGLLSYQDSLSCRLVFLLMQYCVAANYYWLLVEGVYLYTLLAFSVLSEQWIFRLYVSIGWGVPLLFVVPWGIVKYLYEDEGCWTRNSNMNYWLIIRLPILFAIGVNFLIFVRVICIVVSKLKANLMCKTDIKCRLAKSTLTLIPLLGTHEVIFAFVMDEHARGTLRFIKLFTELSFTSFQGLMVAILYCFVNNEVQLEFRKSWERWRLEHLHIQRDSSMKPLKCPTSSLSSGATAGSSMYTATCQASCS

In the case of GLP-1 7–37 (liraglutide) (peptide), the agonist induced internalisation of hGLP-1R V36A (cell-surface ELISA with the anti-GLP-1R antibody, HEK293 cells) is reported as 12.4%.
